B1: Nucleolar transcription factor 1, residues 408 to 469; numbered along this chain, P17480 (parent)
chain: KRPVSAMFIFSEEKRRQLQEERPELSESELTRLLARMWNDLSEKKKAKYKAREAALKAQSER

Variants of: B1
Assay: abundance fitness (aPCA) (normalised: wild type 0, dead -1); higher = more abundant; growth selection in yeast, the domain comes from the species named
Conditions: Homo sapiens

Abundance fitness of substitutions, site by site:
Y49: V -0.82; D -0.626; W -0.022; K -0.861; Q -0.756; S -0.718; L -0.577; R -0.913; M -0.839; H -0.597; G -0.761; P -0.615; T -0.798; N -0.807; F -0.221; E -0.643
A54: R -0.031; F -0.181; I -0.142; S -0.071; T -0.04; K -0.014; H -0.014; C -0.051; N -0.033; D 0.006; Q -0.102; W -0.199; Y -0.075; M -0.098; E -0.063; V -0.003; L -0.056; P -0.267
K50: F 0.002; W -0.134; E -0.017; S -0.131; I 0.005; M -0.096; G -0.251; C -0.049; Y -0.074; V -0.038; P -0.65; H -0.036; A -0.138; R -0.032; Q -0.016; D -0.189
R52: P -0.254; Y -0.324; C -0.111; K 0.014; N -0.277; E -0.026; T -0.042; V -0.127; D -0.106; G -0.193; W -0.234; A -0.17; F -0.209; Q 0.002; L -0.114; S -0.137; I -0.134; M -0.092; H -0.1
L56: N -0.157; R -0.111; G -0.072; Y -0.085; I 0.004; F -0.076; P -0.156; T 0.01; D -0.078; S 0.013; M -0.145; H -0.05; C -0.164; A -0.023; Q -0.089; V -0.036; E -0.045; K -0.082
E53: C -0.086; H -0.152; W -0.133; F -0.186; A -0.056; K -0.366; Q -0.146; T -0.211; R -0.389; Y -0.122; S -0.13; D -0.123; G -0.142; M -0.164; V -0.078; I -0.356; L -0.183; N -0.37
K57: C -0.048; F -0.058; P -0.087; I -0.045; A -0.069; H -0.044; N -0.068; D -0.096; E 0.017; L -0.07; G -0.073
A55: I -0.126; W -0.13; K -0.054; T -0.062; G -0.046; H 0.003; P -0.132; D -0.039; V -0.025; F 0.059; R -0.058; M -0.047; N -0.141; S -0.065; Y -0.149; C -0.028; E 0.058
K48: I -0.264; Q -0.091; F -0.066; W -0.094; E 0.104; S -0.048; P -0.009; H -0.213; G -0.07; N 0.029; R -0.047; C -0.081; V -0.101; D 0.024; Y -0.209; M -0.022; L -0.11; T -0.005
A51: M -0.059; I -0.148; H -0.142; V -0.059; W -0.219; Y -0.097; L -0.042; P -0.374; Q -0.053; K -0.052; E -0.033; F -0.079; D -0.102; S -0.066; G -0.101; C -0.166

Reference: the Human Domainome abundance scans (Beltran et al. 2025)
